Results as given in paper PMC3885427, “NPPB and ACAN, Two Novel SHOX2 Transcription Targets Implicated in Skeletal Development” (PLoS ONE, 2014).

Assays:
Assay in all cases: two-hybrid; S. cerevisiae Y187 cotransformed with pGBT9 (GAL4 binding domain) and pACT2 (GAL4 activation domain) fusions; β-galactosidase liquid assay with CRPG as substrate; fragments and mutants given as percent of full-length or wild-type protein; empty vectors as negative controls
Conditions in all cases: partners not purified
[1] = target: T1, SHOX(117–292), yeast two-hybrid fusion (human, UniProt O15266 117-292)
T1 construct: SHOXa, human, residues 117-292; source: yeast two-hybrid fusion (S. cerevisiae Y187)

[2] = target: T2, SHOX(117–274), yeast two-hybrid fusion (human, UniProt O15266 117-274)
T2 construct: SHOXa, human, residues 117-274; source: yeast two-hybrid fusion (S. cerevisiae Y187)

[3] = target: T3, SHOX(178–292), yeast two-hybrid fusion (human, UniProt O15266 178-292)
T3 construct: SHOXa, human, residues 178-292; source: yeast two-hybrid fusion (S. cerevisiae Y187)
T3 sequence (looked up): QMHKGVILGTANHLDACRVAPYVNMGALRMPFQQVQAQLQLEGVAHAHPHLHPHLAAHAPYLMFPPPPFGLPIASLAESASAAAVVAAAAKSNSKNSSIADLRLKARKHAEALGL

[4] = target: T4, SHOX(1–211), yeast two-hybrid fusion (human, UniProt O15266 1-211)
T4 construct: SHOXa, human, residues 1-211; source: yeast two-hybrid fusion (S. cerevisiae Y187)
T4 sequence (O15266 1-211): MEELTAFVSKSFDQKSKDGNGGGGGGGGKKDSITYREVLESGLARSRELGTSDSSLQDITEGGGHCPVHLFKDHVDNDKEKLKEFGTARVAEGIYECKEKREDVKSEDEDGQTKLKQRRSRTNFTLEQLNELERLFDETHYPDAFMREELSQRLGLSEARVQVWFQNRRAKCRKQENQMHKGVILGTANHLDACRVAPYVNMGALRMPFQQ

T2 sequence (O15266 117-274): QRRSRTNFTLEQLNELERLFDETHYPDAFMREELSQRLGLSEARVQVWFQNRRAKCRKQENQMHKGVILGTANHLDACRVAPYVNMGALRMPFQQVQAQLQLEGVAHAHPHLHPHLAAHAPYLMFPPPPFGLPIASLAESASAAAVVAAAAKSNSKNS

- β-galactosidase units as percent of full-length SHOX [1]: < 50 % of the wildtype
- β-galactosidase units as percent of full-length SHOX [2]: < 50 % of the wildtype
- β-galactosidase units as percent of full-length SHOX [3]: < 50 % of the wildtype
- β-galactosidase units as percent of full-length SHOX [4]: < 50 % of the wildtype
B1: SHOX2a (called SHOX2 in the paper), full-length, yeast two-hybrid fusion (natural protein)
chain: not shown
notes: SHOX2a (short stature homeobox 2, isoform a), human; full-length cDNA NM_006884.3 made from IMAGE SHOX2 clone 4122010 by removing a 70 bp region; also called wild-type SHOX2; full-length SHOX2; source: yeast two-hybrid fusion (S. cerevisiae Y187)
